Two molecules from US20160159869A1 (NORTHWESTERN UNIVERSITY, published 2016) can be followed below.

C16 = C16 alkyl tail covalently attached at the N-terminus

Experiment [1] concerns the target Recombinant human BMP-2 (Medtronic Sofamor Danek) (human) (UniProt P12643). Nature of the experiment: capture of BMP-2 by a 20 µL PA gel from medium containing 25 ng BMP-2, 37 °C, 4 h, sandwich ELISA of the medium.
Experiment [2] addresses T1, Human recombinant BMP-2 with hexahistidine-tag fused at the C-terminus (AdipoGen) (human, UniProt P12643 283-396).
T1 construct: Immobilised on a Ni2+-NTA chip for SPR; also called His-BMP-2; hexahistidine-tagged BMP-2
T1 sequence: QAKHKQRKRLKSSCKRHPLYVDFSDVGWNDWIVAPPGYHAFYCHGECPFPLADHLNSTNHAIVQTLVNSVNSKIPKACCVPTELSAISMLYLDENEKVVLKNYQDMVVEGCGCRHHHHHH
Nature of the experiment: SPR (Biacore 3000): His-BMP-2 captured on Ni2+-NTA chip, PA injected at pH 8.4. Fit with the 2:1 binding model. Column ka. As for the experimental part:
(§1) The SPR measurements were performed using a Biacore 3000 instrument (GE Healthcare, Pittsburgh, Pa.) equipped with a NTA Sensor Chip (GE Healthcare) at 25° C. HBS-P eluent buffer and HBS-EP dispenser buffer were purchased from GE Healthcare. NiCl 2 solution (500 μM in eluent buffer), elution buffer (300 mM imidazole and 500 mM NaCl in water), and regeneration buffer (10 mM HEPES, 150 mM NaCl, 0.005% polysorbate 20, 350 mM EDTA at pH 7.4) were prepared according to Biacore specifications. Human recombinant BMP-2 with hexahistidine-tag fused at the C-terminus (AdipoGen, San Diego, Calif.) was initially reconstituted in PBS at 20 μg/ml, and diluted to 500 nM in eluent buffer.
(§2) Ni²⁺ was first loaded on the NTA chip for 5 min at a flow rate of 20 μl/min, and then His-BMP-2 for 1.25 min at 4 μl/min. Afterwards, each PA sample was injected for 2 min at […], followed by 5 min dissociation at […]. […] To compare binding affinity of the PAs, the sensograms were processed and analyzed with BIAevaluation 4.1 software. The sensogram from blank injection was subtracted from the PA sensograms, and the apparent equilibrium dissociation constant KD was determined using 2:1 binding model, which assumes bivalent analyte interaction with two dissociation constants kd,1 and kd,2, where kd,1 is more dominant.

Experiment [3] has as its target T1, Human recombinant BMP-2 with …. Put plainly: SPR (Biacore 3000): His-BMP-2 captured on Ni2+-NTA chip, PA injected at pH 8.4. Fit with the 2:1 binding model. Column kd,1 (major dissociation rate constant). As for the experimental part: as §1, §2
In general terms: In SPR one partner is held on a chip, and binding of the other changes the refractive index at the surface.

Experiment [4] shares this target. Nature of the experiment: SPR (Biacore 3000), His-BMP-2 immobilised on Ni2+-NTA chip, PA injected at pH 8.4, 2:1 binding model, KD from the major dissociation rate and ka; diluent PA (no binding segment), prepared at pH 8.4. As for the experimental part:
As a control, the BMP-2-binding PA ([…], pH 7.4) was injected to a bare NTA-dextran chip, and we observed non-specific binding of the PA to the surface (FIG. 4). It is contemplated that the fibrillar nanostructures can be entangled to the NTA-dextran surface. To circumvent this, the BMP-2-binding PA was prepared at pH 8.4, where more glutamic acid residues are deprotonated to induce greater electrostatic repulsion between the PA molecules, and sonicated the solution to further break up the supramolecular assembly. […] The best fit was obtained by using the 2:1 binding model, which had two dissociation constants: a major dissociation constant (k_{d,1}) and a minor dissociation constant (k_{d,2}) with the ratio of their contributions (R₁/R₂).
The SPR measurements were performed using a Biacore 3000 instrument (GE Healthcare, Pittsburgh, Pa.) equipped with a NTA Sensor Chip (GE Healthcare) at 25° C. HBS-P eluent buffer and HBS-EP dispenser buffer were purchased from GE Healthcare. NiCl 2 solution (500 μM in eluent buffer), elution buffer (300 mM imidazole and 500 mM NaCl in water), and regeneration buffer (10 mM HEPES, 150 mM NaCl, 0.005% polysorbate 20, 350 mM EDTA at pH 7.4) were prepared according to Biacore specifications. […]

Consider “diluted BMP-2-binding PA (D-BMP2b-PA), co-assembly of BMP2b-PA and diluent PA at 1:1 weight ratio”, for which the amount of BMP-2 bound on the gel after 4 h in experiment [1] amounted to 15.5 ng.

B1: diluent PA, C16-V3A3E3-COOH (peptide)
peptide: C16-VVVAAAEEE-OH
notes: In SPR it was used as a solution at pH 8.4; In the capture assay it was a 1 wt % nanofiber gel formed with CaCl2; also called diluent PA gel
Broadly, the kon is a measure of how fast the partners come together. A word on the koff: it is the first-order rate constant of dissociation. As a reminder, the Kd is the concentration at which binding is half-saturated. With B1, in experiment [2], the kon amounted to 5300 M⁻¹ s⁻¹. The koff in experiment [3] came to 0.011 s⁻¹. Further, in experiment [4], the Kd is 2100 nM.
